Earlier results on 1 substance are cited in paper PMC3234256.

This series addresses Lys73 (UniProt position 71, MMSTFKVLLCG). The series is described as follows: NMR.

For “TEM-1 beta-lactamase (class A) (Escherichia coli)”, the pKa entry was “above 10”.
